Assay results published in patent publication US20250152743A1, “SYNPOPTOSIS CIRCUITS FOR PROGRAMMABLE CELL DEATH CONTROL” (California Institute of Technology, priority 2023, published 2025).

Key:
[1] = system: co-culture of engineered HEK cells that stably express Input 1, Input 2, or both, and wildtype cells; test: Synpoptosis gates in co-culture of four input-state cell lines, Annexin flow cytometry; assay type: cell-based, human; conditions: Input 1 TEVP (Cherry), Input 2 TVMVP (Citrine)
Experimental: As a proof of concept for combinatorial targeting, the synpoptosis gates were tested in a co-culture of engineered HEK cells that stably express Input 1, Input 2, or both, and wildtype cells that express neither. Input 1 with Cherry and Input 2 with Citrine were co-expressed, such that the two fluorescent protein profiles represented input patterns (FIG. 4C, Quadrant layout). The co-culture of the four cell lines were then transfected with the synthetic apoptosis gates to analyze their killing specificity. Transfections of no caspase-3 (FIG. 4C, Mock) and active caspase-3 (FIG. 4C, Indiscriminate) were used to establish background and ceiling apoptosis levels, respectively. […] Similar killing specificities were observed when the synthetic pyroptosis gates were transfected into the co-culture (FIG. 4D).
For experiments that required stable transgene expression, stable cell lines were engineered using lentiviruses followed by antibiotic selection, or using the PiggyBac transposase system. […] The next day, the cells were co-transfected using Lipofectamine 2000 with three plasmids, pLVX-M-PURO (Addgene plasmid #125839) containing the gene of interest, the TEVP-activatable Citrine reporter for instance, psPAX2 (Addgene plasmid #12260), and pCMV-VSV-G (Addgene plasmid #8454). We kept the mass ratio of the three plasmids at 9:9:2 (450 ng:450 ng:100 ng). In some experiments involving cells stably expressing two or more transgenes, the lentiviruses were generated using multiple pLVX-M-PURO plasmids carrying different genes of interest. An alternative ratio of pLVX-M-PURO:psPAX2:pCMV-VSV-G was 2:2:1 (2.4 μg:2.4 μg:1.2 μg), which was used to generate lentiviruses for stable integration of IL-1β and IL-18 genes. […] The RasGC line, or HEK293 cells stably expressing human H-Ras G12V mutant along with a Cerulean fluorescence marker, was generated using the PiggyBac method. […] One week later, the cells were sorted based on Cerulean fluorescence to obtain the final RasGC line. […]

[2] = Engineered Casp3 variants without input protease and with Ras sensor protease; conditions: without an input protease
Experimental: In this experiment, we tested the wild-type TEVP activatable Casp3 protein against the engineered Casp3 variants (v2.1 and v2.2) as described above. Each Casp3 variant was tested without an input protease and with a Ras sensor protease.

B1: AND-gated caspase-3: TEVP-activatable caspase-3 fused to a TVMVP-removable degron; SEQ ID NO: 23 (protein)
chain: MGSENTENSVDSKSIKNLEPKIIHGSESMDSGISLDNSYKMDYPEMGLCIIINNKNFHKSTGMTSRSGTDVDAANLRETFRNLKYEVRNKNDLTREEIVELMRDVSKEDHSKRSSFVCVLLSHGEEGIIFGTNGPVDLKKITNFFRGDRCRSLTGKPKLFIIQACRGTELDCGIETENLYFQSGVDDDMACHKIPVEADFLYAYSTAPGYYSWRNSKDGSWFIQSLCAMLKQYADKLEFMHILTRVNRKVATEFESFSFDATFHAKKQIPCIVSMLTKELYFYHGGSGLETVRFQSGSGSISLIAALAVDYVIGMENAMPWNLPADLAWFKRNTLNKPVIMGRHTWESIGRPLPGRKNIILSSQPSTDDRVTWVKSVDEAIAACGDVPEIMVIGGGRVIEQFLPKAQKLYLTHIDAEVEGDTHFPDYEPDDWESVFSEFHDADAQNSHSYCFEILERR
killing specificity, Annexin staining [1]: triggered apoptosis predominantly in double-positive cells

B2: Caspase3_v2.2: nCasp3-tevs-nHalo-tevs-cHalo-tevs-cCasp3-CAAX; SEQ ID NO: 45 (protein)
chain: MENTENSVDSKSIKNLEPKIIHGSESMDSGISLDNSYKMDYPEMGLCIIINNKNFHKSTGMTSRSGTDVDAANLRETFRNLKYEVRNKNDLTREEIVELMRDVSKEDHSKRSSFVCVLLSHGEEGIIFGTNGPVDLKKITNFFRGDRCRSLTGKPKLFIIQACRGTELDCGIETENLYFQSEIGTGFPFDPHYVEVLGERMHYVDVGPRDGTPVLFLHGNPTSSYVWRNIIPHVAPENLYFQSTHRCIAPDLIGMGKSDKPDLGYFFDDHVRFMDAFIEALGLEEVVLVIHDWGSALGFHWAKRNPERVKGIAFMEFIRPIPTWDEWPEFARETFQAFRTTDVGRKLIIDQNVFIEGTLPMGVVRPLTEVEMDHYREPFLNPVDREPLWRFPNELPIAGEPANIVALVEEYMDWLHQSPVPKLLFWGTPGVLIPPAEAARLAKSLPNCKAVDIGPGLNLLQEDNPDLIGSEIARWLSTLEISENLYFQSGVDDDMACHKIPVEADFLYAYSTAPGYYSWRNSKDGSWFIQSLCAMLKQYADKLEFMHILTRVNRKVATEFESFSFDATFHAKKQIPCIVSMLTKELYFYHSTGGSSGGGGRSKLNPPDESGPGCMSCKCVLS
background (TEVP-independent) cell death / Casp3 activation [2]: background Casp3 activation is reduced | background (TEVP-independent) cell death / Casp3 activation ([2]; listed as v2.2): reduced to statistically non-significant amounts

B3: Caspase3_v2.1: nHalo-tevs-Casp3te-tevs-cHalo-CAAX; SEQ ID NO: 44 (protein)
chain: MEIGTGFPFDPHYVEVLGERMHYVDVGPRDGTPVLFLHGNPTSSYVWRNIIPHVAPGSENLYFQSGSENTENSVDSKSIKNLEPKIIHGSESMDSGISLDNSYKMDYPEMGLCIIINNKNFHKSTGMTSRSGTDVDAANLRETFRNLKYEVRNKNDLTREEIVELMRDVSKEDHSKRSSFVCVLLSHGEEGIIFGTNGPVDLKKITNFFRGDRCRSLTGKPKLFIIQACRGTELDCGIETENLYFQSGVDDDMACHKIPVEADFLYAYSTAPGYYSWRNSKDGSWFIQSLCAMLKQYADKLEFMHILTRVNRKVATEFESFSFDATFHAKKQIPCIVSMLTKELYFYHSTGSENLYFQSGSTHRCIAPDLIGMGKSDKPDLGYFFDDHVRFMDAFIEALGLEEVVLVIHDWGSALGFHWAKRNPERVKGIAFMEFIRPIPTWDEWPEFARETFQAFRTTDVGRKLIIDQNVFIEGTLPMGVVRPLTEVEMDHYREPFLNPVDREPLWRFPNELPIAGEPANIVALVEEYMDWLHQSPVPKLLFWGTPGVLIPPAEAARLAKSLPNCKAVDIGPGLNLLQEDNPDLIGSEIARWLSTLEISGGSSGGGGRSKLNPPDESGPGCMSCKCVLS
background (TEVP-independent) cell death / Casp3 activation [2]: making TEVP-independent Casp3 activation less likely | background (TEVP-independent) cell death / Casp3 activation ([2]; listed as v2.1): reduced to statistically non-significant amounts

B4: caspase-3 variant designed to activate in the presence of Input 1 and the absence of Input 2: TEVP-removable degron on small subunit, TVMVP-activatable N-degron on large subunit (SEQ ID NOs: 25, 26) (protein)
chain 1: MGSETVRFQYHKSGAWKLPVSLVKEQLEKKLQALEKKLAQLEWKNQALEKKLAQENTENSVDSKSIKNLEPKIIHGSESMDSGISLDNSYKMDYPEMGLCIIINNKNFHKSTGMTSRSGTDVDAANLRETFRNLKYEVRNKNDLTREEIVELMRDVSKEDHSKRSSFVCVLLSHGEEGIIFGTNGPVDLKKITNFFRGDRCRSLTGKPKLFIIQACRGTELDCGIETD
chain 2: MGSSGVDDDMACHKIPVEADFLYAYSTAPGYYSWRNSKDGSWFIQSLCAMLKQYADKLEFMHILTRVNRKVATEFESFSFDATFHAKKQIPCIVSMLTKELYFYHGGSGALKKELQANKKELAQLKWELQALKKELAQGGSGLENLYFQSGSGSISLIAALAVDYVIGMENAMPWNLPADLAWFKRNTLNKPVIMGRHTWESIGRPLPGRKNIILSSQPSTDDRVTWVKSVDEAIAACGDVPEIMVIGGGRVIEQFLPKAQKLYLTHIDAEVEGDTHFPDYEPDDWESVFSEFHDADAQNSHSYCFEILERR
killing specificity, Annexin staining [1]: restricted apoptosis to the corresponding cells

B5: OR-gated caspase-3: tandem TEVP and TVMVP cleavage sites at the inter-subunit linker of caspase-3; SEQ ID NO: 24 (protein)
chain: MGSENTENSVDSKSIKNLEPKIIHGSESMDSGISLDNSYKMDYPEMGLCIIINNKNFHKSTGMTSRSGTDVDAANLRETFRNLKYEVRNKNDLTREEIVELMRDVSKEDHSKRSSFVCVLLSHGEEGIIFGTNGPVDLKKITNFFRGDRCRSLTGKPKLFIIQACRGTELDCGIETENLYFQSETVRFQSGVDDDMACHKIPVEADFLYAYSTAPGYYSWRNSKDGSWFIQSLCAMLKQYADKLEFMHILTRVNRKVATEFESFSFDATFHAKKQIPCIVSMLTKELYFYH
killing specificity, Annexin staining [1]: caused apoptosis in single-positive and double-positive cells, sparing only double-negative cells
